From the supplement of paper PMC9112550, “Optimization of the antimicrobial peptide Bac7 by deep mutational scanning” (BMC Biology, 2022)

Tested on: Escherichia coli TOP10
Test: shrunken log2 fold change of peptide-encoding DNA abundance (4.5 h post-induction vs induction); higher = less antimicrobial activity (less host growth inhibition)
Details: time post-induction: 4.5 h; library: site-saturation at positions 5, 18, 19, 20
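Further: peptides expressed intracellularly from a pBAD plasmid library in pooled LB shake-flask culture, induced with 0.3% L-arabinose, DNA abundance read by NGS, three biological replicates, DESeq2 with apeglm shrinkage.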

Sequence	shrunken log2 fold change
RRIRMRPPRLPRPRPRPSNKPRP	0.0232
RRIRSRPPRLPRPRPRPPQTPRP	0.365
RRIRNRPPRLPRPRPRPVFRPRP	-0.165
RRIRDRPPRLPRPRPRPNLDPRP	-0.103
RRIRPRPPRLPRPRPRPHPSPRP	0.000134
RRIRLRPPRLPRPRPRPFQSPRP	0.0501
RRIRSRPPRLPRPRPRPMTNPRP	-0.309
RRIRMRPPRLPRPRPRPKKQPRP	0.0673
RRIRERPPRLPRPRPRPCFNPRP	-0.324
RRIRHRPPRLPRPRPRPALGPRP	-0.0558
RRIRIRPPRLPRPRPRPRTHPRP	-0.372
RRIRIRPPRLPRPRPRPEAGPRP	-0.17
RRIRCRPPRLPRPRPRPGNGPRP	0.217
RRIRPRPPRLPRPRPRPPDRPRP	0.583
RRIRCRPPRLPRPRPRPKHWPRP	0.00902
RRIRIRPPRLPRPRPRPIGCPRP	-0.00783
RRIRYRPPRLPRPRPRPNVFPRP	0.0662
RRIRLRPPRLPRPRPRPNDNPRP	-0.557
RRIRVRPPRLPRPRPRPAHVPRP	0.0119
RRIRSRPPRLPRPRPRPYNGPRP	-0.0342
RRIRYRPPRLPRPRPRPAGKPRP	-0.237
RRIRGRPPRLPRPRPRPCSTPRP	1.14
RRIRRRPPRLPRPRPRPWFSPRP	-0.0902
RRIRRRPPRLPRPRPRPLYEPRP	-0.0905
RRIRDRPPRLPRPRPRPSSCPRP	0.00339

Sequence	shrunken log2 fold change
RRIRWRPPRLPRPRPRPPFSPRP	0.222
RRIRIRPPRLPRPRPRPDKMPRP	-0.473
RRIRPRPPRLPRPRPRPIHCPRP	-0.125
RRIRYRPPRLPRPRPRPYDMPRP	-1.35
RRIRARPPRLPRPRPRPDWWPRP	0.608
RRIRVRPPRLPRPRPRPRWLPRP	0.211
RRIRHRPPRLPRPRPRPKQIPRP	-0.0133
RRIRVRPPRLPRPRPRPTLVPRP	0.0318
RRIRRRPPRLPRPRPRPVKGPRP	-0.0795
RRIRPRPPRLPRPRPRPGFPPRP	0.355
RRIRKRPPRLPRPRPRPAFEPRP	0.158
RRIRFRPPRLPRPRPRPKWQPRP	0.000886
RRIRPRPPRLPRPRPRPRNQPRP	0.00569
RRIRNRPPRLPRPRPRPCTDPRP	0.233
RRIRHRPPRLPRPRPRPDPHPRP	0.000754
RRIRKRPPRLPRPRPRPKFWPRP	0.798
RRIRHRPPRLPRPRPRPDFRPRP	-0.0827
RRIRTRPPRLPRPRPRPHKVPRP	-0.00818
RRIRDRPPRLPRPRPRPYCHPRP	-0.121
RRIRFRPPRLPRPRPRPFQEPRP	-0.00353
RRIRHRPPRLPRPRPRPWVPPRP	-0.408
RRIRDRPPRLPRPRPRPYDHPRP	-0.361
RRIRTRPPRLPRPRPRPMKMPRP	0.0821
RRIRKRPPRLPRPRPRPFQPPRP	0.0366
RRIRFRPPRLPRPRPRPYTWPRP	-1.05

Sequence	shrunken log2 fold change
RRIRRRPPRLPRPRPRPTDHPRP	-0.235
RRIRARPPRLPRPRPRPFWKPRP	-0.13
RRIRRRPPRLPRPRPRPFWYPRP	-0.192
RRIRVRPPRLPRPRPRPDAEPRP	0.431
RRIRCRPPRLPRPRPRPPHFPRP	0.872
RRIRGRPPRLPRPRPRPNLHPRP	0.303
RRIRFRPPRLPRPRPRPYQCPRP	-0.0374
RRIRVRPPRLPRPRPRPPTDPRP	0.116
RRIRKRPPRLPRPRPRPYMPPRP	-0.315
RRIRIRPPRLPRPRPRPNAYPRP	-0.243
RRIRVRPPRLPRPRPRPFESPRP	-0.0298
RRIRNRPPRLPRPRPRPEITPRP	-0.0284
RRIRTRPPRLPRPRPRPVMNPRP	-0.143
RRIRCRPPRLPRPRPRPYTRPRP	-0.669
RRIRCRPPRLPRPRPRPPRDPRP	0.84
RRIRWRPPRLPRPRPRPENMPRP	-0.185
RRIRCRPPRLPRPRPRPQMEPRP	0.04
RRIRMRPPRLPRPRPRPKITPRP	0.19
RRIRIRPPRLPRPRPRPFYPPRP	-0.776
RRIRGRPPRLPRPRPRPTDWPRP	0.8
RRIRSRPPRLPRPRPRPGYTPRP	-0.129
RRIRSRPPRLPRPRPRPTTPPRP	0.502
RRIRLRPPRLPRPRPRPVDPPRP	-0.0136
RRIRERPPRLPRPRPRPVSQPRP	-0.0404
RRIRCRPPRLPRPRPRPQFQPRP	-0.606

Sequence	shrunken log2 fold change
RRIRGRPPRLPRPRPRPNYSPRP	-0.371
RRIRLRPPRLPRPRPRPEHQPRP	-0.0896
RRIRRRPPRLPRPRPRPEMFPRP	-0.151
RRIRARPPRLPRPRPRPPYHPRP	-0.102
RRIRCRPPRLPRPRPRPVRQPRP	0.126
RRIRYRPPRLPRPRPRPKCAPRP	0.0118
RRIRPRPPRLPRPRPRPEIQPRP	0.07
RRIRHRPPRLPRPRPRPHDLPRP	0.0509
RRIRPRPPRLPRPRPRPCLTPRP	-0.0809
RRIRSRPPRLPRPRPRPDFNPRP	-0.411
RRIRMRPPRLPRPRPRPMSKPRP	0.0165
RRIRYRPPRLPRPRPRPFCFPRP	-0.114
RRIRKRPPRLPRPRPRPNAAPRP	0.986
RRIRNRPPRLPRPRPRPLWTPRP	-0.247
RRIRSRPPRLPRPRPRPDQIPRP	0.0424
RRIRTRPPRLPRPRPRPRDLPRP	0.064
RRIRIRPPRLPRPRPRPKKTPRP	-0.235
RRIRARPPRLPRPRPRPGPLPRP	0.429
RRIRIRPPRLPRPRPRPLWSPRP	-0.245
RRIRSRPPRLPRPRPRPDVEPRP	0.00664
RRIRERPPRLPRPRPRPPWDPRP	-0.0062
RRIRWRPPRLPRPRPRPKQIPRP	0.143
RRIRNRPPRLPRPRPRPGHSPRP	-0.152
RRIRPRPPRLPRPRPRPTFAPRP	0.409
RRIRYRPPRLPRPRPRPDYSPRP	-0.245

Sequence	shrunken log2 fold change
RRIRFRPPRLPRPRPRPPVGPRP	0.641
RRIRQRPPRLPRPRPRPASSPRP	-0.196
RRIRFRPPRLPRPRPRPMNEPRP	-0.595
RRIRMRPPRLPRPRPRPSYYPRP	-0.531
RRIRNRPPRLPRPRPRPHRSPRP	0.283
RRIRKRPPRLPRPRPRPIRWPRP	0.0019
RRIRQRPPRLPRPRPRPNLDPRP	0.0163
RRIRQRPPRLPRPRPRPYAAPRP	-0.175
RRIRQRPPRLPRPRPRPFLQPRP	-0.194
RRIRRRPPRLPRPRPRPVVQPRP	0.534
RRIRPRPPRLPRPRPRPWVMPRP	0.211
RRIRQRPPRLPRPRPRPHMLPRP	-1.18
RRIRYRPPRLPRPRPRPMEPPRP	-0.0132
RRIRRRPPRLPRPRPRPWKCPRP	-0.0487
RRIRMRPPRLPRPRPRPPQHPRP	0.817
RRIRIRPPRLPRPRPRPVHCPRP	-0.335
RRIRERPPRLPRPRPRPNKVPRP	-0.372
RRIRGRPPRLPRPRPRPEWYPRP	0.243
RRIRFRPPRLPRPRPRPEVGPRP	0.296
RRIRFRPPRLPRPRPRPTISPRP	-0.611
RRIRWRPPRLPRPRPRPIGAPRP	0.0619
RRIRQRPPRLPRPRPRPESQPRP	-0.0174
RRIRCRPPRLPRPRPRPVMSPRP	-0.136
RRIRCRPPRLPRPRPRPIVMPRP	-0.235
RRIRSRPPRLPRPRPRPKYCPRP	-0.263
